Reference: the DeepSol protein solubility set

Assay: soluble on expression in E. coli; label from the status in PepcDB or PDB records

| Sequence | soluble on expression in E. coli |
| --- | --- |
| MYKGYLIDLDGTMYRGEEQIEEASDFVKALGERGIPYLFVTNNSTRKPEQVAEKLVRFDIPAKAEQVFTTSMATANFIYERKQDATVYMIGEEGLHDALVEKGFELVDENPDFVVVGLDRDITYEKLAKACLAVRNGATFISTNGDIAIPTERGLLPGNGSLTSVVAVSTGVDPIFIGKPESIIMEQALKVLGIEKNEALMVGDNYDTDILAGINAGMHTLLVHTGVTTVEKLTEYEVQPTQVVHNLTEWIEKM | not soluble |
| MYKVSIICTNYNKAPWISDALDSFLSQVTDFEVEIIVIDDASTDDSREILKSYQKKSSGKIKLLFNETNIGITKTWIKACLYAKGKYIARCDGDDYWTDSFKLQKQVDVLEASKRSRWCNTDFDFVNSQGDLLYANAFSSGHTPLTDTYEKVLALKGMTMASTWLVDADLMRQVNQKINVDTPDDTFDIQLELFQLTQLTYIKDSTTIYRMTTDSDSRPTDTPKMIYRIQKLLDTQLNYLKKYNQVDTKEVSELLLQQDAKQEIRIHELSCFIQELQQTIVDKTKQQETREVELQNVIEEQKNQLSELRQQYHAIINSRQWKYTSKLIAFIRRKK | not soluble |
| MYLQLLKPTLLRCSTRPSSSGAYTRSPIDQKWAAMAKKAMKGREADTLTWNTPEGIPIKPLYLRSDRDCDAQRSVELPGQFPFTRGPYPTMYTQRPWTIRQYAGFSTVEESNKFYKENIKAGQQGLSVAFDLATHRGYDSDNPRVFGDVGMAGVAVDSVEDMRQLFDGINLEKMSVSMTMNGAVVPVLAMYVVAAEEAGVSRKLLAGTIQNDILKEFMVRNTYIYPPEPSMRIIGDIFAYTSREMPKFNSISISGYHMQEAGADAVLEMAFTIADGIQYCETGLNAGLTIDAFAPRLSFFWGISMNFYMEIAKMRAARRLWANLIKERFSPKSDKSMMLRTHSQTSGWSLTEQDPYNNIIRTTIEAMASVFGGTQSLHTNSFDEALGLPTKFSARIARNTQIIIQEESGICNVADPWGGSYMMESLTDEIYEKALAVIKEIDELGGMAKAVASGMTKLKIEEAAAKKQARIDAGKDVIVGVNKYRLDHEQQVEVLKIDNAKVREEQCAKLNHIRATRDAEKAQKALDAITEGARGNGNLMELAIEAARARCTVGEISDAMEKVFNRHAAVNRLVSGAYKSEFGETSEMSQVLERVKSFADRDGRQPRIMVAKMGQDGHDRGAKVIATGFADLGFDVDVGPLFQTPLEAAQQAVDADVHVIGASSLAAGHLTLIPQLIGELKKLGRPDILVVAGGVIPPQDYKELYDAGVALVFGPGTRLPACANQILEKLEANLPEAPGKAASR | not soluble |
| MYNIGDKIVYPMHGAGVIESIEEREILGKKQSYYVVKIPIGEMKVLIPIKNVDGIGIREVISEEDADKVFLILKNKALPSNTNWNKRYRENMSKIKSGNIFEVADVVRCLMLRDKLKGLSTGEKKMLNSAKQILISELVLAKNMNPMEIEGMIDKYIS | soluble |
| MYPDDSLTLHTDLYQINMMQVYFDQGIHNKKAVFEVYFRQQPFKNGYAVFAGLERIVNYLEDLRFSDSDIAYLESLGYHGAFLDYLRNFKLELTVRSAQEGDLVFANEPIVQVEGPLAQCQLVETALLNIVNYQTLVATKAARIRSVIEDEPLMEFGTRRAQEMDAAIWGTRAAVIGGANGTSNVRAGKLFDIPVLGTHAHALVQVYGNDYEAFKAYAATHKNCVFLVDTYDTLRIGVPAAIQVARELGDQINFMGVRIDSGDIAYISKKVRQQLDEAGFTEAKIYASNDLDENTILNLKMQKAKIDVWGVGTKLITAYDQPALGAVYKIVAIEDETGQMRNTIKLSNNAEKVSTPGKKQVWRITSREKGKSEGDYITYDGVDISDMTEIKMFHPTYTYIKKTVRNFDAVPLLVDIFKEGILVYNLPSLTDIQDYARKEFDKLWDEYKRVLNPQHYPVDLARDVWQDKMDLIDKMRKEALGEGEEE | not soluble |
| MYQAVVFFDLDGTLMQDDKTVAASSVRAIQQLRANHVLPVIATGRNVFEVQDVMTTTGIDSIVSANGSYVAYQGQFLSAHELDKELLTDITHFANRQQNALAYYNNAGFALSHRDALTTSNYRALRQTARVAPHFYEHQHINFLLTFDPLNAAQYRQRYRGRLHFVRNNPRALDTMQWGVSKAVGIQDILTKAHLTKVPTYAFGDQLNDIEMFRMIQTPIAMGNGHPQVKQLARYVTADNMHGGIAQGLQHFDLI | not soluble |
| MYQIISDSACDLTELYVKKHNIEIVPLTASLDGETYLKDKTEINRKDFYTTMVENPDIFPKTSLPSVESYETVFRKYAEQNIPVVCFTISIHLSGSYNSASMAKDVVEEDYPDAKIVVLDSQQDTVSQALIIDQVVRMQNDGIPFDTMIENTKKLMGTARIFFTVGSLDYLRIGGRIGKMAISATGKLGIKPIIILKDGEVNLGGVGRNRGKLKKNLIQIADKYLTENGKDNFVVSIGYGYDAIEGVAFKDEVEAGLGVKLNGDTNVEIGVITAVHTGPHAIGIGVIQKYETLK | not soluble |
| MYSANPTLGYYVPPLDVNNLTDQQTAISIEHLSLYYQQSRALSDISMRIPKGQVTAFIGPSGCGKSTLLRCINRMNDLVEGTRVEGEVKLHGKNIYHPDVDVPTLRRRVGMVFQRPNPFPKSIYENVVYGLRLQGIKNSRALDDAAEQSLRAAALWDEVKHRLHENAFGLSGGQQQRLVIARAIAIEPEVLLLDEPTSALDPISTLTIEELIHDLKTKYTVVIVTHNMQQAARVSDHTAFIHMGKLIEYADTDSIFTSPLKKQTEDYITGRYG | not soluble |
| MYSAPDFSNNDYKIIMSSQNMKDEKEELMDINKVSEQEMLARKVSKSYVSKIIEYREITGGFDKLEDMKRIKGIGNATYQKLSKVFKVASAPNKKMLNINSADDMTLKYYGLSKKEIKRIQKYLDKNDRITDNIEFKKIVNKKTYERLKDLINYDGGKRLEHHHHHH | soluble |
| MYSDHTQTEAFRGELHGVYGLLFTDGGAPSSAQTSTDFIDASLGVNGYLAADGRGTLAGRVSGVLAGQPAVVGLRNAQAQYWATATGSGDYQINGVRPGRYRMTLYQHELEVAQRDVEVFAGATAQAALQAVSLPGAVKWLEHHHHHH | not soluble |
| MYSFELDKLKIELKTWEHDFIDKNKREPTRDDIKSLRTVRQMYKQYSTLKKKQSLQRQKVDTQESVELPAHKKDHDEVVEIGPTPQVYGKAISIFDMNLSPIKPIYMTFTNNIDVNNDNSKTISNESSPRKTILLKSSPADRTLVAEPISSVKRQLNFQMLNASSTRTPTSSPCKNRNGKLVEIKKCSPTINPPLESGKPSGYYGPNSPLKLDEENIHLNISLNSSTKRRLQIAYPSLQKTPSKDQADISTSFSPSPLIRRPLTKSLIELAREHTEIVKEFGVLQEEDIEEEEEGEEGENGYDEKNHEDDFGLEDELIRPKVVKDIFQEDDDNDDSQAREDTFIRKRPKRRKVIRRLRDNDPETETAGFERDVHKELVKLKRRKVAEFLGSTSQISDTEFEHDPEASSGVVSSEQKPTAKRKGRKKYNLVSNNFRRLKLPKKNRFSNGRWGRR | not soluble |
| MYTLIIPAAGQGKRMGAGKNKLFLLINEVPIIVHTLRAFEKDKACKNIIMAINEEERPYFEELMQKYPVEKPVQFIQGGAERQDSVYNAIQHTTDVEYVLVHDGARPFVTNKVIQDVLTAAEKYGASICAVPVKDTVKKVEQGVVVETVERSQLKAVQTPQGFSVSLLLEAHRSAKQSCFLGTDDASLVERIGKQVGVVEGSYYNIKVTTPEDLLIAESFLHVQKK | not soluble |
| MYTLSAGIWEKFFKKKDYYVVIVGLDNAGKTTFLEQTKSHFVKDYGVLNPSKITATVGLNTGNVELNNTCLHFWDLGGQESLRELWATYYDDANAMIFVVDATRSDLFPIVASQFKEVMANEIVQNIPVLVAVNKSEMEGAAAAAEVRMLLEDDNHRSDLAVLPVSALEGTNIERCVHWIVRSLASQPLYL | not soluble |
| MYVQLSQRLKDVATYVPKGAKLLDVGSDHAYLPIYLLEKGLITSAIAGEVVKGPYESALANVSASGFNDKIDVRLANGLAAFEPYDAVTTITICGMGGRLIADILDAGKDKLKDVDRLILQPNNREDDLRIWLMENGFTIVAEAIMTEN | not soluble |
| NCSKIHLSTKLLAVDFPAHFVKSISCQICEHILADPVETSCKHLFCRICILRCLKVMGSYCPSCRYPCFPTDLESPVKSFLNILNSLMVKCPAQDCNEEVSLEKYNHHVSSHKESK | soluble |
| NDRHIRHDITRPLPFADNSVDAFQAEDVLEHIAYDRIVPVLNEIHRVLKPGAVFRLSVPDYRCDILDARTEKDATGAPVFDPGGGGTRENPGHAWFPRYETVKTLVEKSNFGTAGEISFLHYYDEHNLPAMREIDYAKGFIQRPPDHDPRVQTPYRPMSLVVDLTKRDVRIFSSFNNSASHA | not soluble |
| NECVSKGFGCLPQSDCPQEARLSYGGCSTVCCDLSKLTGCKGKGGECNPLDRQCKELQAESASCGKGQKCCVWLH | soluble |
| NEKETISYIINTSKNIVIFALSPDKTKASYRVAEFLQRKNYKIFPIYPKEEFILNEKVYRNLDQIEEKIDTLILFRKGEVALEILPKLVEKNIKNLWLQLDISNETAKEECKKLDINFIQNRCIMLEYPHFK | not soluble |
| NEKFRPEMLQGKKVIVTGASKGIGREIAYHLAKMGAHVVVTARSKEALQKVVARCLELGAASAHYIAGSMEDMTFAEEFVAEAGNLMGGLDMLILNHVLYNRLTFFHGEIDNVRKSMEVNFHSFVVLSVAAMPMLMQSQGSIAVVSSVAGKITYPLIAPYSASKFALDGFFSTLRSEFLVNKVNVSITLCILGLIDTETAIKATSGIYLGPASPKEECALEIIKGTALRQDEMYYVGSRWVPYLLGNPGRKIMEFLSAAEYNWDNVLSNEKLYGRWA | soluble |
| NKDMSFVIRGNFTYSKNKIDNWEQIEQKYAYQNFSGWPYGIQRGYIALGLFRDEADINNSPIQTFGNYEAGDIKYKDVNGDGRIDIDDQVPLSYDNYPRLMYGFGGEFRYKNLTFNILFKGIGKKDFFYTSEDSGFGYYPFLYGETGNVLSIVANSSNRWIPASYSGDPSTENPNARFPRLSYGKNSNNTQKSTFWKANGQYLRLQEISVGYNLKLKAFSKIGVSSIDLQLVGQDLYVWDKIGGLWDPEQTTKNGRAYPIPATYSLQMYINF | not soluble |
| NKDWTLAIRGNITYNKDKWIEGELPEQRYDWMNQYGQNILGKKGYIAEGLFTQAEIDDMARWESLSQANKATTPKPFASQFGTVKAGDIKYKDLNNDGQIDAYDKTYICRGDVPTMVYGFGFTLGWKNLSLGMMFQGTHDAERIMSGSSIQPFNGGGGSGNLYSNIDDRWTEDNPNQNAFYPRLSYGAETSSNINNFQPSTWWVRDFSFLRLKTMQISYNLPKDWVNKVRLKNAAVYVMGTNLFTLSKFKLWDPELNTDNGASYPNTTSYSVGVNFTF | not soluble |
| NKNFSWNTDWTYSLNREKIKALNSGVTRDEGNLWFVGSPTQVFYDYKKIGIWQLGEEVQAKAFGGFKPGDIKVADMSPKGSEGEGVFSTDDRVIFSRVPKYTFGITNNIIYKNFDLMFFIYGRIGQYVKDAYTQLYKPSALENSAPVNYWTPENPSNEYPRPNSGYSTNSYLLQSSLAFRKASFVKIRDITLGYTLPKEWTSKMMVQKLRIYCSLNNFITFTDFPNYDPESNGSMDFPLAKQVLFGINLSL | not soluble |
| NKNWFVSFKGTFTYAHNEITQYDESPKYPWQSKIGVSANKNAIYIADGLFIDAADIANHQQQLGAAVIPGDIKYINISRDWYGYDDNLTDTDDWVWAKHPGVPEIVYGFGPSIKWKNLDFSFFFQGIARTSFMVKDFHPFGDSMLRNVLSWVADERWSPDNQNTNATYPRLSRKTNNNNNKLSSYWERNGAFLKLKNAEIGYTYKNMRLYISGSNLMTFAPFDLWDPEQGGGSGLSYPTQRVFNIGFQMTINNK | not soluble |
